Values of other authors, collected in article PMC4741438, “Targeting the SIN3A-PF1 interaction inhibits epithelial to mesenchymal transition and maintenance of a stem cell phenotype in triple negative breast cancer” (Oncotarget, 2015).

Test system: PAH2
Conditions: in comparison to MAD
Source text: The PAH2 domain of SIN3 mediates interactions with a restricted subset of factors containing a conserved SIN3 interaction domain (SID) with homology to amino acids 5-24 of the prototypic PAH2-binding protein, the transcriptional repressor MAD [19-22]. […] Therefore, the use of small molecules based on in silico modeling of the MAD-SID sequence to prevent recruitment of the PF1-containing complexes represents a new and potentially clinically effective therapeutic strategy. While it cannot be ruled out that the effects of SID treatment act through inhibiting the interaction of additional PAH2-binding proteins with SIN3, the finding that PF1 kn ...

B1: PF1: plant homeodomain (PHD)-containing protein PF1 (PHF12) (protein)
chain: MWEKMETKTIVYDLDTSGGLMEQIQALLAPPKTDEAEKRSRKPEKEPRRSGRATNHDSCDSCKEGGDLLCCDHCPAAFHLQCCNPPLSEEMLPPGEWMCHRCTVRRKKREQKKELGHVNGLVDKSGKRTTSPSSDTDLLDRSASKTELKAIAHARILERRASRPGTPTSSASTETPTSEQNDVDEDIIDVDEEPVAAEPDYVQPQLRRPFELLIAAAMERNPTQFQLPNELTCTTALPGSSKRRRKEETTGKNVKKTQHELDHNGLVPLPVKVCFTCNRSCRVAPLIQCDYCPLLFHMDCLEPPLTAMPLGRWMCPNHIEHVVLNQKNMTLSNRCQVFDRFQDTVSQHVVKVDFLNRIHKKHPPNRRVLQSVKRRSLKVPDAIKSQYQFPPPLIAPAAIRDGELICNGIPEESQMHLLNSEHLATQAEQQEWLCSVVALQCSILKHLSAKQMPSHWDSEQTEKADIKPVIVTDSSVTTSLQTADKTPTPSHYPLSCPSGISTQNSLSCSPPHQSPALEDIGCSSCAEKSKKTPCGTANGPVNTEVKANGPHLYSSPTDSTDPRRLPGANTPLPGLSHRQGWPRPLTPPAAGGLQNHTVGIIVKTENATGPSSCPQRSLVPVPSLPPSIPSSCASIENTSTLQRKTVQSQIGPPLTDSRPLGSPPNATRVLTPPQAAGDGILATTANQRFSSPAPSSDGKVSPGTLSIGSALTVPSFPANSTAMVDLTNSLRAFMDVNGEIEINMLDEKLIKFLALQRIHQLFPSRVQPSPGSVGTHQLASGGHHIEVQRKEVQARAVFYPLLGLGGAVNMCYRTLYIGTGADMDVCLTNYGHCNYVSGKHACIFYDENTKHYELLNYSEHGTTVDNVLYSCDFSEKTPPTPPSSIVAKVQSVIRRRRHQKQDEEPSEEAAMMSSQAQGPQRRPCNCKASSSSLIGGSGAGWEGTALLHHGSYIKLGCLQFVFSITEFATKQPKGDASLLQDGVLAEKLSLKPHQGPVLRSNSVP
affinity for PAH2, fold lower than MAD: 10 fold
